These results are taken from patent US20110256132A1 (published 2011).

Where only a bound is given, the exact number is not on record here.

In experiment [1] the target is T1, mature myostatin (recombinant, dimeric) (mouse polyprotein used for in-house …, UniProt O08689 268-376).
T1 construct: also called GDF-8; recombinant myostatin
T1 sequence: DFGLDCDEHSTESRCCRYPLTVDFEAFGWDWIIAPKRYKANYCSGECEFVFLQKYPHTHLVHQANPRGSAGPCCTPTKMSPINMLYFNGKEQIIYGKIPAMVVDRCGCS
In words: BIAcore, medium density myostatin surface, antibody analyte, 1:1 model (poor fits). Here is the method: (§1) Purified H0L0, H1L2 and H2L2 bound recombinant myostatin by BIAcore™ Recombinant myostatin was immobilised at three different densities (low, medium and high, to give R-max values of approximately 35, 120 and 350 RU's respectively) onto a BIAcore™ chip. Antibodies were passed over at 256, 64, 16, 4 and 1 nM. 0 nM antibody was used for double referencing and data was fitted to the 1:1 model.

Experiment [2] concerns the target T1, mature myostatin (recombinant, dimeric). In words: BIAcore, low density myostatin surface, antibody analyte, 1:1 model. Here is the method: as §1
The target is the same in experiment [3]. The experiment can be described thus: BIAcore, high density myostatin surface, antibody analyte, 1:1 model (poor fits). Here is the method: as §1
For experiment [4] the target is unchanged. In words: competition ELISA, directly coated myostatin, competitor 10B3. Here is the method:
(§2) A 96-well ELISA plate was coated at 4° C. overnight with 2.5 μg/ml polyclonal Antibody to Myostatin (R&D Systems AF788). This plate was then washed 3-times in wash buffer (PBS, 0.1% Tween-20) and blocked for 1 hour at room temperature with block solution (PBS, 0.1% Tween-20+1% bovine serum albumin [BSA]). Then, myostatin was added at 1 μg/ml in block buffer during 1 hour followed by 3-times in wash buffer. Antibodies were then titrated out to a suitable concentration range (approximately 10 to 0.01 μg/ml), added to the plate and incubated for 1 hour at room temperature. The plate was then washed 3-times in wash buffer. An anti-human kappa light chain HRP-conjugated antibody (Sigma A7164, used according to the manufacturer's instructions) was used to detect binding of humanized or chimeric antibodies, such as 10B3 chimera (HcLc) or H0L0. The plate was then washed 3-times in wash buffer and developed with an OPD substrate (according to the manufacturer's instructions) and read at 490 nm on a plate reader.
The protocol set out in 6.7 was used but the plates were initially coated at 4° C. overnight with 0.2 μg/ml of myostatin (recombinant in-house, see 1.1 above). 10B3 (final concentration of 0.3 μg/ml) was added into each well and mixed with antibodies titrated out to a suitable concentration range (approximately 10 to 0.01 μg/ml). An anti-mouse HRP-conjugated antibody (DAKO P0260, used according to the manufacturer's instructions) was used to detect binding of the 10B3 antibody.

For experiment [5] the target is unchanged. In words: cell-based or functional assay.
Experiment [6] shares this target. The experiment can be described thus: competition ELISA, myostatin captured by polyclonal antibody, competitor 10B3. Here is the method: as §2
The protocol set out in 6.7 was used with the addition of 10B3 (final concentration of […]) to each well and mixed with the antibodies titrated out to a suitable concentration range (approximately 10 to 0.01 μg/ml). An anti-mouse HRP-conjugated antibody (DAKO P0260, used according to the manufacturer's instructions) was used to detect binding of the 10B3 antibody.

Experiment [7] shares this target. The experiment can be described thus: BIAcore T100 full kinetics, high density myostatin surface, Bivalent model. Here is the method: The CDRH3 variants were passed over all three surfaces at 256 nM, 64 nM, 16 nM, 4 nM, 1 nM with a buffer injection (i.e. 0 nM) used for double referencing, regeneration was using 100 mM phosphoric acid. The data was fitted to the Bivalent model inherent to the T100 Biacore machine and was run using HBS-EP at 25° C.

For experiment [8] the target is unchanged. The experiment can be described thus: competition ELISA, biotinylated myostatin on streptavidin, competitor 10B3. Here is the method: as §2
The protocol set out in 6.7 was used but the plates were initially coated at 4° C. overnight with 5 μg/ml of streptavidin. Biotinylated myostatin was added at 0.3 μg/ml block buffer during 1 hour followed by 3-times in wash buffer. 10B3 (final concentration of 0.2 μg/ml) was added into each well and mixed with antibodies titrated out to a suitable concentration range (approximately 10 to 0.01 μg/ml). An anti-mouse HRP-conjugated antibody (DAKO P0260, used according to the manufacturer's instructions) was used to detect binding of the 10B3 antibody.

Experiment [9] shares this target. In words: BIAcore, low density myostatin surface, methods as in 4.3.
Experiment [10] has the same target. The experiment can be described thus: cell-based or functional assay. The source holds these as a separate data set.

B1: H1L2 (antibody, human IgG1, kappa)
heavy: not shown
light: DIQMTQSPSSLSASVGDRVTITCKASQDINSYLSWFQQKPGKAPKSLIYRANRLVDGVPSKFSGSGSGTDYTLTISSLQPEDFATYYCLQCDEFPLTFGQGTKLEIKRTVAAPSVFIFPPSDEQLKSGTASVVCLLNNFYPREAKVQWKVDNALQSGNSQESVTEQDSKDSTYSLSSTLTLSKADYEKHKVYACEVTHQGLSSPVTKSFNRGEC
notes: Humanised, human IgG1 wild type/kappa
As to B1, in experiment [1], the Kd turned out to be 5.06 nM, the off-rate (koff) is 0.000693 s⁻¹ and the kon was determined as 137000 M⁻¹ s⁻¹. Also, in [2], the Kd was found to be 15.1 nM, the koff amounted to 0.00332 s⁻¹ and the on-rate (kon) amounted to 220000 M⁻¹ s⁻¹. Besides, in experiment [3], the Kd was 2.42 nM, the dissociation rate constant (koff) is 0.000223 s⁻¹ and the kon amounted to 92200 M⁻¹ s⁻¹.

B2: H2L2-C91S_P100B_F (antibody, human IgG1, kappa, V domains shown)
VH: QVQLVQSGAEVKKPGASVKVSCKASGYSFTGYFMHWVRQAPGQGLEWMGNIYPYNGVSNYNQRFKARVTMTTDTSTSTAYMELRSLRSDDTAVYYCARRYYYGTGFADWYFDVWGQGTLVTVSS
VL: DIQMTQSPSSLSASVGDRVTITCKASQDINSYLSWFQQKPGKAPKSLIYRANRLVDGVPSKFSGSGSGTDYTLTISSLQPEDFATYYCLQSDEFPLTFGQGTKLEIKR
As for B2, the “ranking order top (1) to bottom (5), myostatin competition ELISA” value (“ranking order top (1) to bottom” for short) in [4] and in experiment [6] was 1 in each case. Further, the “Mean IC50, A204 in vitro activity assay (5 nM myostatin)” value (“Mean IC50, A204 … (5 nM myostatin)” below) in experiment [5] turned out to be 4.24 nM.

B3: H2L2-C91S_V102S (antibody, human IgG1, kappa, name in Kabat numbering, V domains shown)
VH: QVQLVQSGAEVKKPGASVKVSCKASGYSFTGYFMHWVRQAPGQGLEWMGNIYPYNGVSNYNQRFKARVTMTTDTSTSTAYMELRSLRSDDTAVYYCARRYYYGTGPADWYFDSWGQGTLVTVSS
VL: DIQMTQSPSSLSASVGDRVTITCKASQDINSYLSWFQQKPGKAPKSLIYRANRLVDGVPSKFSGSGSGTDYTLTISSLQPEDFATYYCLQSDEFPLTFGQGTKLEIKR
Regarding B3, the entries for the “ranking order top (1) to bottom” value in experiment [4], in experiment [6] and in experiment [8] were 4, 3 and 1, respectively. Besides, the “fold of affinity against F100G_Y” value in experiment [7] is at most 2 fold. For the same molecule, the “Mean IC50, A204 … (5 nM myostatin)” value in experiment [5] was 4.22 nM.

B4: H2L2-C91S_V102N (antibody, human IgG1, kappa, name in Kabat numbering, V domains shown)
VH: QVQLVQSGAEVKKPGASVKVSCKASGYSFTGYFMHWVRQAPGQGLEWMGNIYPYNGVSNYNQRFKARVTMTTDTSTSTAYMELRSLRSDDTAVYYCARRYYYGTGPADWYFDNWGQGTLVTVSS
VL: DIQMTQSPSSLSASVGDRVTITCKASQDINSYLSWFQQKPGKAPKSLIYRANRLVDGVPSKFSGSGSGTDYTLTISSLQPEDFATYYCLQSDEFPLTFGQGTKLEIKR
B4: the figures for the “ranking order top (1) to bottom” value in [4], in [6] and in [8] were 3, 2 and 4, respectively. Moreover, the “fold of affinity against F100G_Y” value in experiment [7] is at most 2 fold. Moreover, in experiment [5], the “Mean IC50, A204 … (5 nM myostatin)” value was 5.51 nM.

B5: H2L2 N54Q & C91S (H2L2-N54Q-C91S) (antibody, human IgG1, kappa, V domains shown)
VH: QVQLVQSGAEVKKPGASVKVSCKASGYSFTGYFMHWVRQAPGQGLEWMGNIYPYQGVSNYNQRFKARVTMTTDTSTSTAYMELRSLRSDDTAVYYCARRYYYGTGPADWYFDVWGQGTLVTVSS
VL: DIQMTQSPSSLSASVGDRVTITCKASQDINSYLSWFQQKPGKAPKSLIYRANRLVDGVPSKFSGSGSGTDYTLTISSLQPEDFATYYCLQSDEFPLTFGQGTKLEIKR
As to B5, the dissociation constant Kd in experiment [9] was 33.3 nM. In addition, in experiment [10], the “Mean IC50, A204 in vitro activity assay” value is 10.4 nM.

B6: H2L2-C91S_G99D (antibody, human IgG1, kappa, name in Kabat numbering, V domains shown)
VH: QVQLVQSGAEVKKPGASVKVSCKASGYSFTGYFMHWVRQAPGQGLEWMGNIYPYNGVSNYNQRFKARVTMTTDTSTSTAYMELRSLRSDDTAVYYCARRYYYDTGPADWYFDVWGQGTLVTVSS
VL: DIQMTQSPSSLSASVGDRVTITCKASQDINSYLSWFQQKPGKAPKSLIYRANRLVDGVPSKFSGSGSGTDYTLTISSLQPEDFATYYCLQSDEFPLTFGQGTKLEIKR
As for B6, in [7], the “fold of affinity against F100G_Y” value is at most 2 fold. For the same molecule, the “ranking order top (1) to bottom” value in experiment [6] worked out at 5.

B7: H2L2-C91S_P100B_I (antibody, human IgG1, kappa, V domains shown)
VH: QVQLVQSGAEVKKPGASVKVSCKASGYSFTGYFMHWVRQAPGQGLEWMGNIYPYNGVSNYNQRFKARVTMTTDTSTSTAYMELRSLRSDDTAVYYCARRYYYGTGIADWYFDVWGQGTLVTVSS
VL: DIQMTQSPSSLSASVGDRVTITCKASQDINSYLSWFQQKPGKAPKSLIYRANRLVDGVPSKFSGSGSGTDYTLTISSLQPEDFATYYCLQSDEFPLTFGQGTKLEIKR
Regarding B7, the “ranking order top (1) to bottom” value in experiment [4] is 5; in experiment [8], 3. For the same molecule, in experiment [5], the “Mean IC50, A204 … (5 nM myostatin)” value worked out at 4.53 nM.

B8: H2L2-C91S_Y96L (antibody, human IgG1, kappa, name in Kabat numbering, V domains shown)
VH: QVQLVQSGAEVKKPGASVKVSCKASGYSFTGYFMHWVRQAPGQGLEWMGNIYPYNGVSNYNQRFKARVTMTTDTSTSTAYMELRSLRSDDTAVYYCARRLYYGTGPADWYFDVWGQGTLVTVSS
VL: DIQMTQSPSSLSASVGDRVTITCKASQDINSYLSWFQQKPGKAPKSLIYRANRLVDGVPSKFSGSGSGTDYTLTISSLQPEDFATYYCLQSDEFPLTFGQGTKLEIKR
Take B8: the “fold of affinity against F100G_Y” value in experiment [7] was at most 2 fold. Also, in [8], the “ranking order top (1) to bottom” value turned out to be 5.

B9: H2L2-C91S_G100A_K (antibody, human IgG1, kappa, V domains shown)
VH: QVQLVQSGAEVKKPGASVKVSCKASGYSFTGYFMHWVRQAPGQGLEWMGNIYPYNGVSNYNQRFKARVTMTTDTSTSTAYMELRSLRSDDTAVYYCARRYYYGTKPADWYFDVWGQGTLVTVSS
VL: DIQMTQSPSSLSASVGDRVTITCKASQDINSYLSWFQQKPGKAPKSLIYRANRLVDGVPSKFSGSGSGTDYTLTISSLQPEDFATYYCLQSDEFPLTFGQGTKLEIKR
With B9, the “fold of affinity against F100G_Y” value in experiment [7] was at most 2 fold.

B10: H2L2-C91S_G99S (antibody, human IgG1, kappa, name in Kabat numbering, V domains shown)
VH: QVQLVQSGAEVKKPGASVKVSCKASGYSFTGYFMHWVRQAPGQGLEWMGNIYPYNGVSNYNQRFKARVTMTTDTSTSTAYMELRSLRSDDTAVYYCARRYYYSTGPADWYFDVWGQGTLVTVSS
VL: DIQMTQSPSSLSASVGDRVTITCKASQDINSYLSWFQQKPGKAPKSLIYRANRLVDGVPSKFSGSGSGTDYTLTISSLQPEDFATYYCLQSDEFPLTFGQGTKLEIKR
Turning to B10, the “fold of affinity against F100G_Y” value in [7] was at most 2 fold.
